In the Human Domainome abundance scans (Beltran et al. 2025):
± gives the uncertainty stated by the source.

B1: Nuclear receptor subfamily 4 group A member 2, residues 260 to 336; numbered along this chain, P43354 (parent)
chain: EGLCAVCGDNAACQHYGVRTCEGCKGFFKRTVQKNAKYVCLANKNCPVDKRRRNRCQYCRFQKCLAVGMVKEVVRTD

Variants of: B1
Test: abundance fitness (aPCA) (normalised: wild type 0, dead -1); higher = more abundant; growth selection in yeast, the domain comes from the species named
Conditions: Homo sapiens

| Variant | abundance fitness |
| --- | --- |
| R19Y | -0.12 ± 0.19 |
| R19V | 0.005 ± 0.062 |
| R19H | 0.137 ± 0.11 |
| R19P | 0.037 ± 0.098 |
| R19W | -0.053 ± 0.077 |
| R19Q | -0.053 ± 0.074 |
| R19E | 0.064 ± 0.073 |
| R19A | 0.015 ± 0.056 |
| R19F | 0.14 ± 0.13 |
| R19L | 0.026 ± 0.06 |
| R19N | 0.182 ± 0.15 |
| R19M | -0.175 ± 0.089 |
| R19I | -0.03 ± 0.12 |
| R19C | 0.009 ± 0.092 |
| R19S | 0.034 ± 0.063 |
| R19D | -0.202 ± 0.27 |
| R19K | 0.05 ± 0.083 |
| F27E | -0.959 ± 0.33 |
| F27H | -0.624 ± 0.36 |
| F27M | -0.584 ± 0.2 |
| F27G | -0.99 ± 0.17 |
| F27K | -0.691 ± 0.25 |
| F27A | -1.06 ± 0.25 |
| F27L | -0.431 ± 0.085 |

| Variant | abundance fitness |
| --- | --- |
| F27I | -0.705 ± 0.47 |
| G26T | 0.051 ± 0.13 |
| G26V | -0.191 ± 0.096 |
| G26K | -0.352 ± 0.14 |
| G26R | -0.174 ± 0.059 |
| G26A | -0.079 ± 0.088 |
| G26C | -0.138 ± 0.11 |
| G26F | 0.068 ± 0.18 |
| G26Q | -0.171 ± 0.071 |
| G26D | -0.062 ± 0.36 |
| G26L | -0.137 ± 0.072 |
| G26E | -0.214 ± 0.15 |
| G26W | -0.388 ± 0.091 |
| G26M | -0.27 ± 0.18 |
| G26S | -0.218 ± 0.089 |
| G26H | 0.16 ± 0.15 |
| Q14T | -0.013 ± 0.15 |
| Q14E | -0.129 ± 0.095 |
| Q14V | 0.095 ± 0.077 |
| Q14I | -0.211 ± 0.4 |
| Q14W | 0.017 ± 0.088 |
| Q14L | 0.221 ± 0.073 |
| Q14S | 0.117 ± 0.14 |
| Q14G | 0.005 ± 0.07 |

| Variant | abundance fitness |
| --- | --- |
| Q14M | 0.199 ± 0.079 |
| Q14K | 0.256 ± 0.1 |
| Q14P | -0.012 ± 0.097 |
| Q14N | -0.088 ± 0.21 |
| Q14Y | 0.572 ± 0.32 |
| Q14D | -0.189 ± 0.1 |
| Q14A | 0.207 ± 0.089 |
| Q14R | -0.061 ± 0.079 |
| H15V | 0.016 ± 0.072 |
| H15T | 0.01 ± 0.12 |
| H15P | 0.104 ± 0.1 |
| H15S | -0.053 ± 0.075 |
| H15C | -0.097 ± 0.13 |
| H15N | -0.012 ± 0.15 |
| H15R | -0.137 ± 0.053 |
| H15K | -0.101 ± 0.25 |
| H15E | -0.106 ± 0.091 |
| H15M | 0.054 ± 0.1 |
| H15W | 0.013 ± 0.078 |
| H15L | -0.014 ± 0.07 |
| H15A | -0.138 ± 0.084 |
| H15Q | -0.318 ± 0.26 |
| H15G | -0.082 ± 0.07 |
| Y16G | -0.01 ± 0.07 |

| Variant | abundance fitness |
| --- | --- |
| Y16A | 0.049 ± 0.065 |
| Y16K | -0.185 ± 0.12 |
| Y16Q | 0.025 ± 0.12 |
| Y16I | -0.432 ± 0.38 |
| Y16L | -0.081 ± 0.12 |
| Y16R | -0.051 ± 0.14 |
| Y16P | -0.112 ± 0.15 |
| Y16T | -0.131 ± 0.14 |
| Y16M | 0.383 ± 0.46 |
| Y16V | -0.185 ± 0.11 |
| Y16S | -0.1 ± 0.15 |
| Y16W | -0.351 ± 0.17 |
| Y16N | 0.029 ± 0.14 |
| Y16F | 0.037 ± 0.13 |
| T20S | 0.204 ± 0.26 |
| C21L | -0.725 ± 0.38 |
| C21Q | 0.041 ± 0.45 |
| C21R | -0.981 ± 0.33 |
| C21A | -0.632 ± 0.33 |
| C21G | -0.46 ± 0.23 |
| G23W | -0.029 ± 0.17 |
| G23C | 0.065 ± 0.27 |
| G23E | -0.016 ± 0.47 |
| G23S | 0.306 ± 0.21 |

| Variant | abundance fitness |
| --- | --- |
| G23K | 0.106 ± 0.19 |
| G23I | 0.017 ± 0.25 |
| G23Q | -0.208 ± 0.43 |
| G23A | -0.136 ± 0.23 |
| E22K | -0.067 ± 0.12 |
| E22W | -0.208 ± 0.092 |
| E22D | 0.049 ± 0.11 |
| E22Y | 0.06 ± 0.25 |
| E22Q | 0.089 ± 0.19 |
| E22N | 0.248 ± 0.25 |
| E22V | -0.213 ± 0.08 |
| E22F | -0.102 ± 0.16 |
| E22I | -0.393 ± 0.2 |
| E22P | -0.001 ± 0.094 |
| E22M | 0.027 ± 0.2 |
| E22S | -0.204 ± 0.11 |
| E22H | -0.02 ± 0.13 |
| E22G | -0.142 ± 0.058 |
| E22L | -0.067 ± 0.062 |
| V18C | -0.263 ± 0.35 |
| V18S | -0.121 ± 0.082 |
| V18P | -0.11 ± 0.092 |
| V18A | 0.116 ± 0.12 |
| V18Q | -0.161 ± 0.12 |

| Variant | abundance fitness |
| --- | --- |
| V18R | -0.29 ± 0.12 |
| V18H | -0.387 ± 0.24 |
| V18G | -0.112 ± 0.07 |
| V18E | -0.044 ± 0.14 |
| V18L | -0.15 ± 0.098 |
| V18W | -0.484 ± 0.13 |
| V18F | -0.111 ± 0.11 |
| G17V | -0.364 ± 0.14 |
| G17P | -0.841 ± 0.34 |
| G17E | -0.116 ± 0.19 |
| G17W | -0.383 ± 0.33 |
| G17C | 0.255 ± 0.26 |
| G17Q | 0.044 ± 0.15 |
| G17L | -0.133 ± 0.099 |
| G17T | -0.097 ± 0.11 |
| G17H | -0.004 ± 0.33 |
| G17R | -0.173 ± 0.094 |
| G17I | 0.092 ± 0.4 |
| G17K | -0.346 ± 0.25 |
| G17M | -0.076 ± 0.12 |
| G17S | -0.371 ± 0.17 |
| K25A | 0.127 ± 0.11 |
| K25T | -0.12 ± 0.17 |
| K25P | -0.675 ± 0.3 |

| Variant | abundance fitness |
| --- | --- |
| K25V | 0.046 ± 0.085 |
| K25D | -0.017 ± 0.18 |
| K25G | 0.101 ± 0.094 |
| K25E | 0.049 ± 0.1 |
| K25R | 0.079 ± 0.071 |
| K25L | 0.057 ± 0.098 |
| K25Q | -0.019 ± 0.12 |
| K25M | 0.082 ± 0.12 |
| K25Y | -0.503 ± 0.31 |
| K25F | -0.047 ± 0.36 |
| K25S | -0.031 ± 0.079 |
| K25W | -0.013 ± 0.13 |
| K25N | 0.033 ± 0.36 |
| C13M | 0.239 ± 0.08 |
| C13V | 0.046 ± 0.061 |
| C13T | 0.006 ± 0.098 |
| C13R | -0.103 ± 0.075 |
| C13Y | -0.138 ± 0.36 |
| C13L | 0.083 ± 0.083 |
| C13S | 0.092 ± 0.075 |
| C13W | 0.082 ± 0.07 |
| C24V | -0.802 ± 0.37 |
| C24R | -0.954 ± 0.43 |
